This is an account of results in PMC8298264, “Function of cofactor Akirin2 in the regulation of gene expression in model human neutrophil-like HL60 cells” (Bioscience Reports, 2021).

This assay concerns human HL60 cells. Kind of assay: SWATH-MS proteomics, differential protein representation, akirin2 KO vs WT HL60 cells. Type of assay: cell-based. As for the experimental part: Total proteins were extracted from WT and akirin2 KO HL60 cells using the AllPrep DNA/RNA/Protein Mini Kit (Qiagen) and protein concentration was determined using the BCA Protein Assay with BSA (Sigma–Aldrich) as standard. Protein extracts (150 µg per sample, n=3 biological replicates) from each WT and KO cells were trypsin digested using the FASP Protein Digestion Kit (Expedeon Ltd., Abcam, Cambridge, U.K.) and sequencing grade trypsin (Promega, Madison, WI, U.S.A.) following manufacturer’s recommendations. The resulting peptides were finally desalted on to OMIX Pipette tips C18 (Agilent Technologies, Santa Clara, CA, U.S.A.), dried down and stored at −20 °C until mass spectrometry analysis. […] Three micrograms of each protein digest from the three biological replicates of WT and akirin2 KO HL60 cells were used for the generation of the reference spectral ion library as part of the SWATH-MS analysis.
Peptides were eluted in a 120-min gradient from 5 to 30% solvent B in solvent A followed by 15-min gradient from 30 to 60% solvent B in solvent A (solvent A: 0.1% formic acid in water, solvent B: 0.1% formic acid in acetonitrile) and directly injected into the mass spectrometer for analysis. For IDA experiments, the mass spectrometer was set to scanning full spectra (350–1400 m/z) using 250 ms accumulation time per spectrum, followed by up to 50 MS/MS scans (100–1500 m/z). Candidate ions with a charge state between +2 and +5 counts per second above a minimum threshold of 100 were isolated for fragmentation. One MS/MS spectrum was collected for 100 ms, before adding those precursor ions to the exclusion list for 15 s (mass spectrometer operated by Analyst TF 1.6, AB Sciex). Dynamic background subtraction was turned off. MS/MS analyses were recorded in high-sensitivity mode with rolling collision energy on and a collision energy spread of 5. For SWATH quantitative analysis, six independent samples (three replicates from WT and akirin2 KO HL60 cells, 5 µg each) were subjected to the cyclic DIA of mass spectra using the SWATH variable windows calculator (V 1.0, AB Sciex) and the SWATH acquisition method editor (AB Sciex), similar to established methods. […] For these experiments, a 50-ms survey scan (350–1400 m/z) was acquired at the beginning of each cycle, and SWATH–MS/MS spectra were collected from 100–1500 m/z for 70 ms at high-sensitivity mode, resulting in a cycle time of 3.6 s. Collision energy for each window was determined according to the calculation for a charge +2 ion-centered upon the window with a collision energy spread of 15. To create a spectral library of all the detectable peptides in the samples, the IDA MS raw files were combined and subjected to database search in unison using ProteinPilot software v. 5.0.1 (AB Sciex) with the Paragon algorithm. […] The detected protein threshold was set at 0.05. An independent false discovery rate (FDR) analysis, using the target–decoy approach provided by Protein Pilot (AB Sciex; https://sciex.com/products/software/proteinpilot-software), was used to assess the quality of identifications. Positive identifications were considered when identified proteins reached 1% of global FDR. […] Global normalization was performed according to the Total Area Sums (TAS) of all detected proteins in the samples. […] Heatmaps were prepared using the Heatmapper (http://www.heatmapper.ca/expression/) with average linkage and Euclidean distance measurement method.

[1] abbreviates: Over-represented in KO, KO vs WT HL60 cells.
Setting [2] is: akirin2 KO vs WT HL60 cells, sheet "Over-represented in KO".
Setting [3] is: SWATH-MS, akirin2 KO vs WT HL60 cells, over-represented in KO.

B1: sp¦O00273¦DFFA_HUMAN (protein, UniProt O00273 1-331, looked up)
DNA fragmentation factor …: MEVTGDAGVPESGEIRTLKPCLLRRNYSREQHGVAASCLEDLRSKACDILAIDKSLTPVTLVLAEDGTIVDDDDYFLCLPSNTKFVALASNEKWAYNNSDGGTAWISQESFDVDETDSGAGLKWKNVARQLKEDLSSIILLSEEDLQMLVDAPCSDLAQELRQSCATVQRLQHTLQQVLDQREEVRQSKQLLQLYLQALEKEGSLLSKQEESKAAFGEEVDAVDTGISRETSSDVALASHILTALREKQAPELSLSSQDLELVTKEDPKALAVALNWDIKKTETVQEACERELALRLQQTQSLHSLRSISASKASPPGDLQNPKRARQDPT
In the case of B1, under setting [1], the “Fold Change” value was 1.2886 and the “Log (Fold Change)” value was found to be 0.1101.

B2: sp¦P12814¦ACTN1_HUMAN (protein, UniProt P12814 1-892, looked up)
Alpha-actinin-1: MDHYDSQQTNDYMQPEEDWDRDLLLDPAWEKQQRKTFTAWCNSHLRKAGTQIENIEEDFRDGLKLMLLLEVISGERLAKPERGKMRVHKISNVNKALDFIASKGVKLVSIGAEEIVDGNVKMTLGMIWTIILRFAIQDISVEETSAKEGLLLWCQRKTAPYKNVNIQNFHISWKDGLGFCALIHRHRPELIDYGKLRKDDPLTNLNTAFDVAEKYLDIPKMLDAEDIVGTARPDEKAIMTYVSSFYHAFSGAQKAETAANRICKVLAVNQENEQLMEDYEKLASDLLEWIRRTIPWLENRVPENTMHAMQQKLEDFRDYRRLHKPPKVQEKCQLEINFNTLQTKLRLSNRPAFMPSEGRMVSDINNAWGCLEQVEKGYEEWLLNEIRRLERLDHLAEKFRQKASIHEAWTDGKEAMLRQKDYETATLSEIKALLKKHEAFESDLAAHQDRVEQIAAIAQELNELDYYDSPSVNARCQKICDQWDNLGALTQKRREALERTEKLLETIDQLYLEYAKRAAPFNNWMEGAMEDLQDTFIVHTIEEIQGLTTAHEQFKATLPDADKERLAILGIHNEVSKIVQTYHVNMAGTNPYTTITPQEINGKWDHVRQLVPRRDQALTEEHARQQHNERLRKQFGAQANVIGPWIQTKMEEIGRISIEMHGTLEDQLSHLRQYEKSIVNYKPKIDQLEGDHQLIQEALIFDNKHTNYTMEHIRVGWEQLLTTIARTINEVENQILTRDAKGISQEQMNEFRASFNHFDRDHSGTLGPEEFKACLISLGYDIGNDPQGEAEFARIMSIVDPNRLGVVTFQAFIDFMSRETADTDTADQVMASFKILAGDKNYITMDELRRELPPDQAEYCIARMAPYTGPDSVPGALDYMSFSTALYGESDL
On to B2, for which, under setting [1], the “Fold Change” value is reported as 1.274 and the “Log (Fold Change)” value is given as 0.1053.

B3: sp¦P50502¦F10A1_HUMAN (protein, UniProt P50502 1-369, looked up)
Hsc70-interacting protein: MDPRKVNELRAFVKMCKQDPSVLHTEEMRFLREWVESMGGKVPPATQKAKSEENTKEEKPDSKKVEEDLKADEPSSEESDLEIDKEGVIEPDTDAPQEMGDENAEITEEMMDQANDKKVAAIEALNDGELQKAIDLFTDAIKLNPRLAILYAKRASVFVKLQKPNAAIRDCDRAIEINPDSAQPYKWRGKAHRLLGHWEEAAHDLALACKLDYDEDASAMLKEVQPRAQKIAEHRRKYERKREEREIKERIERVKKAREEHERAQREEEARRQSGAQYGSFPGGFPGGMPGNFPGGMPGMGGGMPGMAGMPGLNEILSDPEVLAAMQDPEVMVAFQDVAQNPANMSKYQSNPKVMNLISKLSAKFGGQA
For the molecule B3, under setting [2], the “Fold Change” value is on record as 1.2518 and the “Log (Fold Change)” value was determined as 0.09753.

B4: sp¦O14745¦NHRF1_HUMAN (protein, UniProt O14745 2-358, looked up)
Na(+)/H(+) exchange …: SADAAAGAPLPRLCCLEKGPNGYGFHLHGEKGKLGQYIRLVEPGSPAEKAGLLAGDRLVEVNGENVEKETHQQVVSRIRAALNAVRLLVVDPETDEQLQKLGVQVREELLRAQEAPGQAEPPAAAEVQGAGNENEPREADKSHPEQRELRPRLCTMKKGPSGYGFNLHSDKSKPGQFIRSVDPDSPAEASGLRAQDRIVEVNGVCMEGKQHGDVVSAIRAGGDETKLLVVDRETDEFFKKCRVIPSQEHLNGPLPVPFTNGEIQKENSREALAEAALESPRPALVRSASSDTSEELNSQDSPPKQDSTAPSSTSSSDPILDFNISLAMAKERAHQKRSSKRAPQMDWSKKNELFSNL
Take B4: under setting [1], the “Fold Change” value was 1.293 and the “Log (Fold Change)” value came out at 0.1116.

B5: Serine protease 57 (protein, UniProt Q6UWY2 32-283, looked up)
Serine protease 57: AQIIGGHEVTPHSRPYMASVRFGGQHHCGGFLLRARWVVSAAHCFSHRDLRTGLVVLGAHVLSTAEPTQQVFGIDALTTHPDYHPMTHANDICLLRLNGSAVLGPAVGLLRPPGRRARPPTAGTRCRVAGWGFVSDFEELPPGLMEAKVRVLDPDVCNSSWKGHLTLTMLCTRSGDSHRRGFCSADSGGPLVCRNRAHGLVSFSGLWCGDPKTPDVYTQVSAFVAWIWDVVRRSSPQPGPLPGTTRPPGEAA
With B5, under setting [3], the “Fold Change” value is on record as 3.338 and the “Log (Fold Change)” value is recorded as 0.5235.

B6: sp¦Q9Y3F4¦STRAP_HUMAN (protein, UniProt Q9Y3F4 1-350, looked up)
Serine-threonine kinase …: MAMRQTPLTCSGHTRPVVDLAFSGITPYGYFLISACKDGKPMLRQGDTGDWIGTFLGHKGAVWGATLNKDATKAATAAADFTAKVWDAVSGDELMTLAHKHIVKTVDFTQDSNYLLTGGQDKLLRIYDLNKPEAEPKEISGHTSGIKKALWCSEDKQILSADDKTVRLWDHATMTEVKSLNFNMSVSSMEYIPEGEILVITYGRSIAFHSAVSLDPIKSFEAPATINSASLHPEKEFLVAGGEDFKLYKYDYNSGEELESYKGHFGPIHCVRFSPDGELYASGSEDGTLRLWQTVVGKTYGLWKCVLPEEDSGELAKPKIGFPETTEEELEEIASENSDCIFPSAPDVKA
With B6, under setting [1], the “Fold Change” value amounted to 1.284 and the “Log (Fold Change)” value is recorded as 0.1086.

B7: sp¦Q8NC51¦PAIRB_HUMAN (protein, UniProt Q8NC51 2-408, looked up)
SERPINE1 mRNA-binding protein …: PGHLQEGFGCVVTNRFDQLFDDESDPFEVLKAAENKKKEAGGGGVGGPGAKSAAQAAAQTNSNAAGKQLRKESQKDRKNPLPPSVGVVDKKEETQPPVALKKEGIRRVGRRPDQQLQGEGKIIDRRPERRPPRERRFEKPLEEKGEGGEFSVDRPIIDRPIRGRGGLGRGRGGRGRGMGRGDGFDSRGKREFDRHSGSDRSSFSHYSGLKHEDKRGGSGSHNWGTVKDELTESPKYIQKQISYNYSDLDQSNVTEETPEGEEHHPVADTENKENEVEEVKEEGPKEMTLDEWKAIQNKDRAKVEFNIRKPNEGADGQWKKGFVLHKSKSEEAHAEDSVMDHHFRKPANDITSQLEINFGDLGRPGRGGRGGRGGRGRGGRPNRGSRTDKSSASAPDVDDPEAFPALA
Regarding B7, under setting [1], the “Fold Change” value is 1.286 and the “Log (Fold Change)” value is recorded as 0.1092.

B8: sp¦P41218¦MNDA_HUMAN (protein, UniProt P41218 1-407, looked up)
Myeloid cell nuclear …: MVNEYKKILLLKGFELMDDYHFTSIKSLLAYDLGLTTKMQEEYNRIKITDLMEKKFQGVACLDKLIELAKDMPSLKNLVNNLRKEKSKVAKKIKTQEKAPVKKINQEEVGLAAPAPTARNKLTSEARGRIPVAQKRKTPNKEKTEAKRNKVSQEQSKPPGPSGASTSAAVDHPPLPQTSSSTPSNTSFTPNQETQAQRQVDARRNVPQNDPVTVVVLKATAPFKYESPENGKSTMFHATVASKTQYFHVKVFDINLKEKFVRKKVITISDYSECKGVMEIKEASSVSDFNQNFEVPNRIIEIANKTPKISQLYKQASGTMVYGLFMLQKKSVHKKNTIYEIQDNTGSMDVVGSGKWHNIKCEKGDKLRLFCLQLRTVDRKLKLVCGSHSFIKVIKAKKNKEGPMNVN
B8: under setting [1], the “Fold Change” value is 1.264 and the “Log (Fold Change)” value worked out at 0.1017.

B9: sp¦Q99614¦TTC1_HUMAN (protein, UniProt Q99614 1-292, looked up)
Tetratricopeptide repeat …: MGEKSENCGVPEDLLNGLKVTDTQEAECAGPPVPDPKNQHSQSKLLRDDEAHLQEDQGEEECFHDCSASFEEEPGADKVENKSNEDVNSSELDEEYLIELEKNMSDEEKQKRREESTRLKEEGNEQFKKGDYIEAESSYSRALEMCPSCFQKERSILFSNRAAARMKQDKKEMAINDCSKAIQLNPSYIRAILRRAELYEKTDKLDEALEDYKSILEKDPSIHQAREACMRLPKQIEERNERLKEEMLGKLKDLGNLVLRPFGLSTENFQIKQDSSTGSYSINFVQNPNNNR
As to B9, under setting [1], the “Fold Change” value worked out at 1.292 and the “Log (Fold Change)” value worked out at 0.1114.
